The data set deals with the molecule itself. Description: SEC; Superdex 200 prep grade, purified protein 5 mg/mL in Buffer C (20 mM MES, 100 mM NaCl, pH 5.9), 0.5 mL/min; masses estimated against standard proteins; dimers and tetramers coexist.

“And” between values parts separate entries of the source, which are not always exact repeats. Equal values may be shown once.

B1: Pseudomonas aeruginosa PAO1 dihydropyrimidinase (enzyme)
chain: MSLLIRGATVVTHEESYRADVLCANGLIQAIGENLETPSGCDVLDGGGQYLMPGGIDPHTHMQLPFMGTVASEDFFSGTAAGLAGGTTSIIDFVIPNPRQSLLEAFHTWRGWAQKSAADYGFHVAITWWSDEVAREMGELVAQHGVNSFKHFMAYKNAIMAADDTLVASFERCLELGAVPTVHAENGELVFHLQQKLLAQGLTGPEAHPLSRPPQVEGEAASRAIRIAETLGTPLYLVHISSREALDEIAYARAKGQPVYGEVLAGHLLLDDSVYRHPDWATAAGYVMSPPFRPVEHQEALWRGLQSGNLHTTATDHCCFCAEQKAMGRDDFSKIPNGTAGIEDRMALLWDAGVNSGRLSMHEFVALTSTNTAKIFNLFPRKGAIRVGADADLVLWDPQGSRTLSAATHHQRVDFNIFEGRTVRGIPSHTISQGKLLWAAGDLRAEPGAGRYVERPAYPSVYEVLGRRAERQRPVAVER
modifications: carboxylated lysine in the active site (position not given)
notes: dihydropyrimidinase of Pseudomonas aeruginosa PAO1; two zinc ions per monomer in the active site; also called P. aeruginosa dihydropyrimidinase; pseudomonal dihydropyrimidinase
B1: the “stoichiometry N” value was 2 and 4.

The values are drawn from article PMC5832032, “Structural Basis for pH-Dependent Oligomerization of Dihydropyrimidinase from Pseudomonas aeruginosa PAO1” (Bioinorganic Chemistry and Applications, 2018).
